Assay results as given in PMC7003530 (Biochemistry, 2019).

Target: Factor-inhibiting HIF-1 (human, UniProt Q9NWT6 1-349)
Experiment: other fluorescence titration

## H-DESGLPQLTSYDAEVNAPIQGSRNLLQGEELLRALDQVN-OH [39-residue CTAD peptide substrate, human HIF-1α 788–826 with C800A]
  Kd: 92 ± 9 µM
